# B1: HGF NK1 (ligand)
# chain: QRKRRNTIHEFKKSAKTTLIKIDPALKIKTKKVNTADQCANRCTRNKGLPFTCKAFVFDKARKQCLWFPFNSMSSGVKKEFGHEFDLYENKDYIRNCIIGKGRSYKGTVSITKSGIKCQPWSSMIPHEHSFLPSSYRGKDLQENYCRNPRGEEGGPWCFTSNPEVRYEVCDIPQEQKLISEEDLNHHHHHHH
# notes: range 32-205; also called HGF-NK1 MYC his; monomeric NK1
# B2: HGF-α (ligand)
# chain: QRKRRNTIHEFKKSAKTTLIKIDPALKIKTKKVNTADQCANRCTRNKGLPFTCKAFVFDKARKQCLWFPFNSMSSGVKKEFGHEFDLYENKDYIRNCIIGKGRSYKGTVSITKSGIKCQPWSSMIPHEHSFLPSSYRGKDLQENYCRNPRGEEGGPWCFTSNPEVRYEVCDIPQCSEVECMTCNGESYRGLMDHTESGKICQRWDHQTPHRHKFLPERYPDKGFDDNYCRNPDGQPRPWCYTLDPHTRWEYCAIKTCADNTMNDTDVPLETTECIQGQGEGYRGTVNTIWNGIPCQRWDSQYPHEHDMTPENFKCKDLRENYCRNPDGSESPWCFTTDPNIRVGYCSQIPNCDMSHGQDCYRGNGKNYMGNLSQTRSGLTCSMWDKNMEDLHRHIFWEPDASKLNENYCRNPDDDAHGPWCYTGNPLIPWDYCPISRCEGDTEQKLISEEDLNHHHHHHH
# notes: range 32-473; also called HGF α-chain; HGF-α MYC his
# How the values were obtained:
# [1] = molecular target: T1, Decoy Met (UniProt P08581 25-932); experiment: ELISA, Decoy Met in solid phase, MYC-tagged ligand in liquid phase, anti-MYC detection
# T1 construct: range 25-932; Soluble FLAG- and His-tagged receptor, purified from conditioned medium of transduced cells; also called decoy met FLAG.his; DM
# Experimental: (§1) Factor purification was performed by immobilized-metal affinity chromatography as previously described in Michieli P. et al. (2002) Nat Biotechnol. 20(5), 488-495. Conversion of pro-HGF into active HGF was performed by incubating purified pro-HGF (maximal concentration 100 ng/μl) with 2-10% FBS (Sigma, St. Louis, Mo.) at 37° C. for 24 hours. Factor conversion was analyzed by Western blotting using anti-HGF antibodies (R&D Systems, Minneapolis, Minn.). Uncleavable HGF subjected to the same incubation with FBS was used as pro-HGF in all assays that compared active HGF with unprocessed HGF. Binding of engineered ligands to soluble receptors was measured by ELISA using FLAG-tagged soluble receptors in solid phase and MYC-tagged engineered ligands in liquid phase. […] Binding data were analyzed and fit using Prism software (Graph Pad Software, San Diego, Calif.).
# (§2) To determine the affinity of each Met module for pro-HGF, HGF-α, HGF NK1 and HGF-β and to compare it with that for active HGF, engineered receptors were immobilized in solid phase and exposed to increasing concentrations of MYC-tagged ligands. […] Non-specific binding was determined using the kringle-containing protein angiostatin (AS) also tagged with a MYC epitope—in liquid phase. […] Binding of HGF-β to decoy Met (or to any other Met domain) was too low to be detected in this kind of assay. […]
# [2] = molecular target: T2, Sema-PSI (UniProt P08581 25-562); experiment: ELISA, receptor in solid phase, MYC-tagged ligand in liquid phase, anti-MYC detection
# T2 construct: range 25-562; also called Sema-PSI FLAG.his; SP
# Experimental: as §1, with “All engineered receptors and factors were collected from the conditioned medium of lentiviral vector-transduced […] human melanoma cells in the absence of serum. Factor purification” for “Factor purification”, “Minneapolis, Minn.). […] Binding of” for “Minneapolis, Minn.). Uncleavable HGF subjected to the same incubation with FBS was used as pro-HGF in all assays that compared active HGF with unprocessed HGF. Binding of”
# as §2
# [3] = molecular target: T3, IPT (UniProt P08581 563-932); experiment: ELISA, IPT in solid phase, MYC-tagged ligand in liquid phase, anti-MYC detection
# T3 construct: range 563-932; also called IPT FLAG.his; soluble IPT
# Experimental: as §1, §2
Binder,fold reduced affinity compared to active HGF [1] [fold],binding result [2],fold less tightly than active HGF [3] [fold]
B1,10,no binding,10
B2,4,no binding,–

# From patent US20090298079A1 (METHERESIS TRANSLATIONAL RESEARCH, published 2009)
